{"source": "paper PMC8533794", "about": "“Selection of a Nuclease-Resistant RNA Aptamer Targeting CD19”", "key": {"[1]": {"target": "T1, CD19 on transfected COS-7 cells (human) (UniProt P15391)", "T1 sequence": "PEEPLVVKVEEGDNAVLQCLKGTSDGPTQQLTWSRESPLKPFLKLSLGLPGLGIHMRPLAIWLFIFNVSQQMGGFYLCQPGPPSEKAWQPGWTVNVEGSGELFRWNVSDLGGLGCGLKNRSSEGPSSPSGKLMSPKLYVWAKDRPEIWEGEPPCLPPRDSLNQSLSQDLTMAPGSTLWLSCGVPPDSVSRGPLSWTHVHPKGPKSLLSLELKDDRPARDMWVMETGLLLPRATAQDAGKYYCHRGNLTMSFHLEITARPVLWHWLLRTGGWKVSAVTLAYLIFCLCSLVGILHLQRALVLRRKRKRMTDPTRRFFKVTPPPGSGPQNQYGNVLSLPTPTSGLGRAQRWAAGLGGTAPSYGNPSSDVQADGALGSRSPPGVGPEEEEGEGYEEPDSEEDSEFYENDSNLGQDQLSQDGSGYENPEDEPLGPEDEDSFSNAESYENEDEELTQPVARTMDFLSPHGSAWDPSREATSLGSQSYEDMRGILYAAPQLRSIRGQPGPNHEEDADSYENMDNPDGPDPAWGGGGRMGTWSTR", "assay": "cell binding RT-qPCR", "details": "200 nM aptamer, poly(I); 2'-fluoro pyrimidines; BLI: running buffer not stated (tips prehydrated in PBS), temperature not stated; cell binding: serum-free medium, 37 C, 30 min, with poly(I) 0.1 ug/uL (qPCR) …"}, "[2]": {"target": "T2, endogenous CD19 of MEC-1 cells (human (MEC-1 B-CLL cell line)) (UniProt P15391)", "T2 sequence": "T1 sequence", "assay": "flow cytometry", "details": "2'-fluoro pyrimidines; BLI: running buffer not stated (tips prehydrated in PBS), temperature not stated; cell binding: serum-free medium, 37 C, 30 min, with poly(I) 0.1 ug/uL (qPCR) …"}, "[3]": {"target": "T3, rhCD19 (recombinant human CD19, extracellular domain) (human, UniProt P15391 20-291)", "assay": "BLI; up to 1 uM aptamer; BLI: running buffer not stated (tips prehydrated in PBS), temperature not stated; cell binding: serum-free medium, 37 C, 30 min, with poly(I) 0.1 ug/uL (qPCR) or tRNA 0.4 ug/uL plus 100 nM Ctrl Apt (FACS); pull-down lysis: 10 mM Tris-HCl pH 7.5, 200 mM NaCl, 5 mM EDTA, 0.1% Triton X-100", "details": "protein: recombinant"}, "[4]": {"target": "rhBCMA (B Cell Maturation Antigen) (human, UniProt Q02223 1-54)", "sequence (Q02223 1-54)": "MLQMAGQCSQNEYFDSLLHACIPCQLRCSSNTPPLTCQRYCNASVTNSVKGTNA", "assay": "BLI; up to 1 uM aptamer; BLI: running buffer not stated (tips prehydrated in PBS), temperature not stated; cell binding: serum-free medium, 37 C, 30 min, with poly(I) 0.1 ug/uL (qPCR) or tRNA 0.4 ug/uL plus 100 nM Ctrl Apt (FACS); pull-down lysis: 10 mM Tris-HCl pH 7.5, 200 mM NaCl, 5 mM EDTA, 0.1% Triton X-100", "details": "protein: recombinant"}, "[5]": {"target": "T3, rhCD19 (recombinant human CD19, …)", "assay": "BLI; 2.5-100 nM aptamer; BLI: running buffer not stated (tips prehydrated in PBS), temperature not stated; cell binding: serum-free medium, 37 C, 30 min, with poly(I) 0.1 ug/uL (qPCR) or tRNA 0.4 ug/uL plus 100 nM Ctrl Apt (FACS); pull-down lysis: 10 mM Tris-HCl pH 7.5, 200 mM NaCl, 5 mM EDTA, 0.1% Triton X-100", "details": "protein: recombinant"}}}
{"molecule": "UGAGCCCUGUUCGACAGGAGGCUCA [B85.T2]", "values": [{"measurement": "binding signal (fold over parental COS-7)", "setting": "[1]", "result": 22}]}
{"molecule": "UGAGCCCUGUUCGACAGGAGGCUCA [B85.T2 (FAM)]", "values": [{"measurement": "binding signal (fold over Jurkat)", "setting": "[2]", "result": 2}]}
{"molecule": "CCUGUUGUUCGACAGGAGGCUCACAACAGG [B88.T2]", "values": [{"measurement": "binding signal (fold over parental COS-7)", "setting": "[1]", "result": 7}]}
{"molecule": "UUCGUACCGGGUAGGUUGGCUUGCACAUAGAACGUGUCA (structured_RNA, 2'-fluoro pyrimidines)", "note": "[Ctrl Apt]", "values": [{"measurement": "binding result", "setting": "[3]", "result": "no binding"}]}
{"molecule": "UGAGCCCUGUUCGACAGGAGGCUCA (structured_RNA, 2'-fluoro pyrimidines)", "note": "[B85.T2]", "values": [{"measurement": "binding result", "setting": "[4]", "result": "no binding"}, {"measurement": "Kd", "setting": "[5]", "result": "49.9 ± 13", "unit": "nM"}]}
